Experimental data as given in patent US20240417433A1 (NANTONG YICHEN BIOPHARMA, published 2024).
Where “and” joins values, the source holds several entries; their conditions need not be identical. Identical values can stand only once.

B1: ATF-H2 (bispecific antibody)
heavy: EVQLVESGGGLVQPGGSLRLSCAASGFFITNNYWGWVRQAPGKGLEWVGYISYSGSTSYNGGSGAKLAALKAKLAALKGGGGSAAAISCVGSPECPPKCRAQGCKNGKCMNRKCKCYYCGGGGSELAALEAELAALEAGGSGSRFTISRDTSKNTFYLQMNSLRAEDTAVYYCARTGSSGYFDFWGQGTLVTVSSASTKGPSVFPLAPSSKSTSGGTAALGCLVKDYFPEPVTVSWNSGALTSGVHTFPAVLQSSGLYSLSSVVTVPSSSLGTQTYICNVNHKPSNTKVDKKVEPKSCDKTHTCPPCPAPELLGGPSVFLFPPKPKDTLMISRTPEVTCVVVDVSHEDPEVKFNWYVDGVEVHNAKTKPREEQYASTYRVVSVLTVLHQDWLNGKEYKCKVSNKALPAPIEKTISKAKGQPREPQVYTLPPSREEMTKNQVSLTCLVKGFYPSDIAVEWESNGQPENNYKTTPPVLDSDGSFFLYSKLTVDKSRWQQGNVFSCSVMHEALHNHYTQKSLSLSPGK
light: DIQMTQSPSSLSASVGDRVTITCRASESVDDLLHWYQQKPGKAPKLLIKYASQSISGVPSRFSGSGSGTDFTLTISSLQPEDFATYYCQQGNSLPNTFGQGTKVEIKRTVAAPSVFIFPPSDEQLKSGTASVVCLLNNFYPREAKVQWKVDNALQSGNSQESVTEQDSKDSTYSLSSTLTLSKADYEKHKVYACEVTHQGLSSPVTKSFNRGEC
notes: The summary says the graft lies between 60N and 65S of heavy chain FR3; also called ATF-H2 (with HCDR2-grafted Vm24)
B2: ATF-H1 (bispecific antibody)
heavy: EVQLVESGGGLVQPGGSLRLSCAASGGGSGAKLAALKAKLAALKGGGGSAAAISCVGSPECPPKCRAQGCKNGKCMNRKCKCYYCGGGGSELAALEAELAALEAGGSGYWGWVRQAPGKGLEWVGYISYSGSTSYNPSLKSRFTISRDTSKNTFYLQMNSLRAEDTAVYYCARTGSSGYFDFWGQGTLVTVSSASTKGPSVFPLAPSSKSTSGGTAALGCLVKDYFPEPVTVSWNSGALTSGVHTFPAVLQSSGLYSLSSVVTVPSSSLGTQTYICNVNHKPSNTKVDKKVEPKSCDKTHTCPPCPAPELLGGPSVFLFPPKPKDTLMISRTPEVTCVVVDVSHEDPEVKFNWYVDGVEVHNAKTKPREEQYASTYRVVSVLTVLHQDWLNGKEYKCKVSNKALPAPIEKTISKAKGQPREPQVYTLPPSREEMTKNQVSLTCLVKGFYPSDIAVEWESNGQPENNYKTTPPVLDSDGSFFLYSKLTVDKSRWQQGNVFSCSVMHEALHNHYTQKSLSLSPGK
light: B1 light
notes: Vm24 with linkers grafted into HCDR1 of etrolizumab; also called ATF-H1 (with HCDR1-grafted Vm24)
B3: ATF-H3 (bispecific antibody)
heavy: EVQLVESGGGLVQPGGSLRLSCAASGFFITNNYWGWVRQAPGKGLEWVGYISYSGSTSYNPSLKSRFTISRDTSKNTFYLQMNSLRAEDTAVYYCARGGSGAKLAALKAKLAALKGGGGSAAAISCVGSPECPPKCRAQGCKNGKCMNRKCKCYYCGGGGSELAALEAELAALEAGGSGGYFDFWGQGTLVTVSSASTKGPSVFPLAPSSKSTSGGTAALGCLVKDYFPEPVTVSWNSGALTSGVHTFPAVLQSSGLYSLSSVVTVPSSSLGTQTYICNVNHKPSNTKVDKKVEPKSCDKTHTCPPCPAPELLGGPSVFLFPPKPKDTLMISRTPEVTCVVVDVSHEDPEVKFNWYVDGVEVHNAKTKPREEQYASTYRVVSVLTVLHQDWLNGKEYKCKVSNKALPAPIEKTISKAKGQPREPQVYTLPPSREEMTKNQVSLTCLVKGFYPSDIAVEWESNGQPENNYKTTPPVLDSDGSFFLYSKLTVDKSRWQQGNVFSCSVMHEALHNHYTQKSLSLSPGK
light: B1 light
notes: Vm24 with linkers grafted into HCDR3 of etrolizumab; also called ATF-H3 (with HCDR3-grafted Vm24)
B4: ATF-L1 (bispecific antibody)
heavy: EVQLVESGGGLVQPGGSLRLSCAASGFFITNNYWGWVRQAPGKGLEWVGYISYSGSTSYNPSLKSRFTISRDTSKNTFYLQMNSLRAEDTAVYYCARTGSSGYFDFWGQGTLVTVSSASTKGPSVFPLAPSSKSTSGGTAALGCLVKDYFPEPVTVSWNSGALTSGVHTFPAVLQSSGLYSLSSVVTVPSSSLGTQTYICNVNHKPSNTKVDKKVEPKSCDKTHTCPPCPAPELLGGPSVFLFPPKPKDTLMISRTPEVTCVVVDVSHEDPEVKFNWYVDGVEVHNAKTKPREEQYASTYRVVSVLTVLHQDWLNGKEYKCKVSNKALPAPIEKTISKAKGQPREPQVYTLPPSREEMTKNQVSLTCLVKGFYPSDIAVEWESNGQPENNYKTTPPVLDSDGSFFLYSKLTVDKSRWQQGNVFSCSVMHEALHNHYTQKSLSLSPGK
light: DIQMTQSPSSLSASVGDRVTITCRASESGGSGAKLAALKAKLAALKGGGGSAAAISCVGSPECPPKCRAQGCKNGKCMNRKCKCYYCGGGGSELAALEAELAALEAGGSGLLHWYQQKPGKAPKLLIKYASQSISGVPSRFSGSGSGTDFTLTISSLQPEDFATYYCQQGNSLPNTFGQGTKVEIKRTVAAPSVFIFPPSDEQLKSGTASVVCLLNNFYPREAKVQWKVDNALQSGNSQESVTEQDSKDSTYSLSSTLTLSKADYEKHKVYACEVTHQGLSSPVTKSFNRGEC
B5: ATF-L2 (bispecific antibody)
heavy: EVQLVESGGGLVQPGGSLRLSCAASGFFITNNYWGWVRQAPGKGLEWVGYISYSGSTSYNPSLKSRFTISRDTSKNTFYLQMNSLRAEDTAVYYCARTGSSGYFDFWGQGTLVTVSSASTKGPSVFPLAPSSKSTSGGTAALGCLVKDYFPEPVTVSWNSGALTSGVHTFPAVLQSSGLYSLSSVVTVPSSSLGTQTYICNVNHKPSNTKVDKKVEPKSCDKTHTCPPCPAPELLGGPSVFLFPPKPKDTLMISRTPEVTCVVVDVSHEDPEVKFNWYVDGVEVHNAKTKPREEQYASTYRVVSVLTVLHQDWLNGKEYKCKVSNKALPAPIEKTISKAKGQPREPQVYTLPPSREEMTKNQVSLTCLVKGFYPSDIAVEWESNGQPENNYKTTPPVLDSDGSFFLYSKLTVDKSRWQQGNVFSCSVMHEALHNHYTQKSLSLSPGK
light: DIQMTQSPSSLSASVGDRVTITCRASESVDDLLHWYQQKPGKAPKLLIKYASQSISGGSGAKLAALKAKLAALKGGGGSAAAISCVGSPECPPKCRAQGCKNGKCMNRKCKCYYCGGGGSELAALEAELAALEAGGSGSRFSGSGSGTDFTLTISSLQPEDFATYYCQQGNSLPNTFGQGTKVEIKRTVAAPSVFIFPPSDEQLKSGTASVVCLLNNFYPREAKVQWKVDNALQSGNSQESVTEQDSKDSTYSLSSTLTLSKADYEKHKVYACEVTHQGLSSPVTKSFNRGEC
notes: The summary says the graft lies between 56S and 60S of light chain FR3; also called ATF-L2 (with LCDR2-grafted Vm24)
B6: Etrolizumab (antibody, V domains shown)
VH: EVQLVESGGGLVQPGGSLRLSCAASGFFITNNYWGWVRQAPGKGLEWVGYISYSGSTSYNPSLKSRFTISRDTSKNTFYLQMNSLRAEDTAVYYCARTGSSGYFDFWGQGTLVTVSS
VL: DIQMTQSPSSLSASVGDRVTITCRASESVDDLLHWYQQKPGKAPKLLIKYASQSISGVPSRFSGSGSGTDFTLTISSLQPEDFATYYCQQGNSLPNTFGQGTKVEIKR
B7: ATF-L3 (bispecific antibody)
heavy: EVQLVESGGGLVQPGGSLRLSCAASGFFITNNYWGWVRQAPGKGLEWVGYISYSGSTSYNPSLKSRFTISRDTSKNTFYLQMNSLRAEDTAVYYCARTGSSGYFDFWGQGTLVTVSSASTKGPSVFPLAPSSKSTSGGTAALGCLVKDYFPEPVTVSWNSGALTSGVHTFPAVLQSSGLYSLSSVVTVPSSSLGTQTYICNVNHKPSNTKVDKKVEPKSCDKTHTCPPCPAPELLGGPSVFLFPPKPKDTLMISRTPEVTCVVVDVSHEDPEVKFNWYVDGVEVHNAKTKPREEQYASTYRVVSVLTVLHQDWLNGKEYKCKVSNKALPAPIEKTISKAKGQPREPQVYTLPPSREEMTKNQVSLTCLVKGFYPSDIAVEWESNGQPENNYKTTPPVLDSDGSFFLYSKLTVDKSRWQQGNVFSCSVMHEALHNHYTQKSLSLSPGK
light: DIQMTQSPSSLSASVGDRVTITCRASESVDDLLHWYQQKPGKAPKLLIKYASQSISGVPSRFSGSGSGTDFTLTISSLQPEDFATYYCQQGGGSGAKLAALKAKLAALKGGGGSAAAISCVGSPECPPKCRAQGCKNGKCMNRKCKCYYCGGGGSELAALEAELAALEAGGSGNTFGQGTKVEIKRTVAAPSVFIFPPSDEQLKSGTASVVCLLNNFYPREAKVQWKVDNALQSGNSQESVTEQDSKDSTYSLSSTLTLSKADYEKHKVYACEVTHQGLSSPVTKSFNRGEC
notes: Vm24 with linkers grafted into LCDR3 of etrolizumab; also called ATF-L3 (with LCDR3-grafted Vm24)

What was measured:
[1] = molecular target: Kv1.3 potassium ion channel (UniProt P22001 1-575); experiment: cell-based or functional assay
Sequence of Kv1.3 potassium ion channel (P22001 whole entry): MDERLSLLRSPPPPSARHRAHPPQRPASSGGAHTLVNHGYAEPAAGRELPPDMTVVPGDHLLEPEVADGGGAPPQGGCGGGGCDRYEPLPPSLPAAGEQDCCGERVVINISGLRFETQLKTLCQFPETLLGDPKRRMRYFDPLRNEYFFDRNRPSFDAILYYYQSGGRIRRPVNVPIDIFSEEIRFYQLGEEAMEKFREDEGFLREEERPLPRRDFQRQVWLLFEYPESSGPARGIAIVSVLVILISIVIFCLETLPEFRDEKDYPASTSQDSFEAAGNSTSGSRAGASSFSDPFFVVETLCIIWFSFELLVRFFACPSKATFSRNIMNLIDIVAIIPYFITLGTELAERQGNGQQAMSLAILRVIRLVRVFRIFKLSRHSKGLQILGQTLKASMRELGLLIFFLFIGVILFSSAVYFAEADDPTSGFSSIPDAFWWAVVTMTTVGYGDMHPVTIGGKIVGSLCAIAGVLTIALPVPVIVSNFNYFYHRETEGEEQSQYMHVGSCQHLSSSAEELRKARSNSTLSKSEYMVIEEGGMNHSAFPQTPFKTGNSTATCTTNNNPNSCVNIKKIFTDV

[2] = molecular target: integrin β7 on human β7-high T cells (human, UniProt P26010 20-798; P13612 34-1032); experiment: cell-based or functional assay
Recombinant protein α4β7 = molecular target: T1, Recombinant protein α4β7 (UniProt P13612 34-977; P26010 20-723); experiment: ELISA on coated recombinant α4β7 (100 ng per well)
T1 construct: Coated on the ELISA plate at 100 ng per well; also called integrin β7
T1 sequence (P13612 34-977, chain 1 of 2): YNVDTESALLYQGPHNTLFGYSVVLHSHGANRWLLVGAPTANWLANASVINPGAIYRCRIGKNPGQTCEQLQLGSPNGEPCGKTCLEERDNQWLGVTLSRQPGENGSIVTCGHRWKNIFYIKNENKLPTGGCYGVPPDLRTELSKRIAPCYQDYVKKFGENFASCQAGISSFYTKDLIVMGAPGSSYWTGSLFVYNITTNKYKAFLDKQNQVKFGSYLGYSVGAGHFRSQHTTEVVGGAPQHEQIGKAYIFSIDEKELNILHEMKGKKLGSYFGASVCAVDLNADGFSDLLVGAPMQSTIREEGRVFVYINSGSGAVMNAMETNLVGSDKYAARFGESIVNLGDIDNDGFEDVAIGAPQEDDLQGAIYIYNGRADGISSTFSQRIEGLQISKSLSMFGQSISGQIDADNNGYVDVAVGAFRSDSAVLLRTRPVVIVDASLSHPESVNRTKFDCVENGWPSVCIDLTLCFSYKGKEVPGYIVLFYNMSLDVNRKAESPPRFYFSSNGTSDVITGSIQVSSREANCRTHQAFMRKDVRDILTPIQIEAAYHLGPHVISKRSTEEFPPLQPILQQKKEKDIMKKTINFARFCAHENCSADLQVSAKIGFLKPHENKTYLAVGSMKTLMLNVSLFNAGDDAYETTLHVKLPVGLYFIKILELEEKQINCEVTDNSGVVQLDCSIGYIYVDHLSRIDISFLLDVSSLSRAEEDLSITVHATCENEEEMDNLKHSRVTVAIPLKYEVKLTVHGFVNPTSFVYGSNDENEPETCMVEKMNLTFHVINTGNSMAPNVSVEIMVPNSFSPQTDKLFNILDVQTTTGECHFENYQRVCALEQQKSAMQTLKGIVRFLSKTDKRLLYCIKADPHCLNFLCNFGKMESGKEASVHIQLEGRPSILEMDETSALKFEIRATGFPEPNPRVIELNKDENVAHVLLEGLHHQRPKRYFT
T1 sequence (P26010 20-723, chain 2 of 2): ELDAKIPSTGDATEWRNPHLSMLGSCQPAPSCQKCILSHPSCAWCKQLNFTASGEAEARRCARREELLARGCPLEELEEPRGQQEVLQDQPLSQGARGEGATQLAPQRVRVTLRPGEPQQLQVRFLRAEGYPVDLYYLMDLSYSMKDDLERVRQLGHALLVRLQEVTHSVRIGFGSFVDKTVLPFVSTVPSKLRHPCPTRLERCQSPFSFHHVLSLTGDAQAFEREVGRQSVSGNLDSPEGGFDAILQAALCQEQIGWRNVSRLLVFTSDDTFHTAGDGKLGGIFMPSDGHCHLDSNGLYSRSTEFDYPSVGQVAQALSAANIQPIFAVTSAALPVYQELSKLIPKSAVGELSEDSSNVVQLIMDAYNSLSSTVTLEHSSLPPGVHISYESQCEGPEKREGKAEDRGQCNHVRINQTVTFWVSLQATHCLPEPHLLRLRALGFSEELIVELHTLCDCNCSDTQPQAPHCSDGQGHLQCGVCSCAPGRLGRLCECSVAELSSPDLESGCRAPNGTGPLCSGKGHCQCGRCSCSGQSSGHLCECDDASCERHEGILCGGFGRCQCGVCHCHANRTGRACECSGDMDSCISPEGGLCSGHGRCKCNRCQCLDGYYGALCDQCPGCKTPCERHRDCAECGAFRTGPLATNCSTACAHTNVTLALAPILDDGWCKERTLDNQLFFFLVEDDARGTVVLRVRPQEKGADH

Row | Binder | IC50, Flipr potassium current fluorescence detection [1] [pM] | IC50, cell adhesion assay (CellTiter-Glo) [2] | Kd (Recombinant protein α4β7) [pM] | binding result (Recombinant protein α4β7)
1 | B1 | 530 | 0.072 µg/ml and 0.45 nM | 19.2 | 
2 | B2 | 720 |  |  | no binding
3 | B3 |  |  | 13900 | 
4 | B4 | 700 | 0.173 µg/ml and 1.09 nM |  | 
5 | B5 |  |  | 35.9 | 
6 | B6 |  | 0.06 µg/ml and 0.42 nM |  | 
7 | B7 |  |  | 40.8 | 
